The values below come from the DeepSol protein solubility set.

The data set in a line: soluble on expression in E. coli; label from the status in PepcDB or PDB records.
On to “KEFFLAKHAEQKKRHHKYNDTEYNLEPNVKGSPGGLRDIQTILWVARRQYGTLNLHALAGEGFLLGSENALLASSQEFLWKVRYALHMLAGRSEDRLLFDYQVRIAGLLGYEDNDAKLAIERFMQKYYRVVMSIAELSDLIIQHFEEVILSDDDGTPQPINSRFQLHDGYIEATNPNVFRRTPFAMLEIFVLMAQHPEIKGVRADTIRLL”, for which the “soluble on expression in E. coli” value is reported as “not soluble”.
“KFGELREISGNQYVNEVTNAEKDLWVVIHLYRSSVPMCLVVNQHLSVLARKFPETKFVKAIVNSCIEHYHDNCLPTIFVYKNGQIEGKFIGIIECGGINLKLEELEWKLSEVGAIQSDLEEN”: the “soluble on expression in E. coli” value is reported as “soluble”.
Turning to “KGHAWTHSAGEPLRVVAIQGNIAQELKWDPNQVRAQLDLYRDLSLPQQDVDLIVWPETAVPILQDMASGYLGAMGQVADEKNAALITGVPVRERLADGKSRYFNGITVVGEGAGTYLKQKLVPFGEYVPLQDLLRGLIAFFDLPMSDFARGPADQPLLKAKGYQIAPYICYEVVYPEFAAALAAQSQVLLTVSNDTWFGTSIGPLQHLQMAQMRALESGRWMIRATNNGVTGLIDPYGRIVRQIPQFQQGILRGEVIPMQGLTPYLQYR”, the “soluble on expression in E. coli” value was “not soluble”.
“KGTLYLVATPIGNLEDVTFRAIRTLKEADQIAAEDTRQTKKLLNHFDIATKLVSYHEHNKETMGKRLIDDLIEGRTIALVSDAGMPAISDPGYELVVSAIKEGIAVIPIPGA”: the “soluble on expression in E. coli” value was “not soluble”.
“KHHHHHHIKPGALCVIDTPEGKGTGFFSGNDIVTAAHVVGNNTFVNVCYEGLMYEAKVRYMPEKDIAFITCPGDLHPTARLKLSKNPDYSCVTVMAYVNEDLVVSTAAAMVYGNTLSYAVRTQDGMSGAPVCDKYCRVLAVHQTNTGYTGGAVIIDPTDFHPV”: the “soluble on expression in E. coli” value was “soluble”.
Turning to “KHLPQILCEAMTREAETMAMPDPKLPEEINRTFMQTYADVEQLVPPAKVDRHGSVCIYLPSPASSEEAEANLSWEEQILQDLPRFIIGLQKRGYAPSDIAILVRKTYQAREIARAMLSYQPEPDEEDYPLIPMSDESLSLSGAASIRFLSNLLKFISRPQSDALRQIAYLSYEELRKEKGLAPTEEGNFSAAELAEFANLRRRSLYELAEGLVSFFHSYLPEREMPYLIAWLDLINDFGHERSADLHSFLQWWDETGHAKSRISSAPNSQAVTLMTIHKAKGLGFRVVLIPFLDWNLDDEAAHRHILWCKIDPARSPFNILPVVPIRYKKEMAQTMFATDYFRERADILLDNLNLLYVATTRAKDEMHLWLHPSQKPESLSTVGDLIHLALASLDENKTESDMYCWGSPVISARQKTTDHPSSGLPFTLPKGSLSAVADRLAIRPEGSEFYRRHKPLYHGHVMHRILADIVLAKDIEPALERYVSGGIVTRDEAIELVDRLSVVTSDSRLSRWFDGSGRVLNEQDILLPEGEQRRPDRIILYDDHTDIVDYKFGAVRKVHHAQMENYIRLLVSMGYPSVRGYLWYLPNNEIVGVRSVRGITRSKGEERKEGKGERGIERKAK”, the “soluble on expression in E. coli” value is recorded as “not soluble”.
As for “KLGAPVKKAILEALSERDQTADICKDSKGNIEPDTQLRDTELVAFPDHLTLPLPVNYDKEPDLSKLLPLVKAHCEAYLKAEVLPHVADAWIDYSKTKVGYEIPINRHFYIYEPPRPLEEIKAEIVQLEQEIMQMLGGLSA”, the “soluble on expression in E. coli” value is “not soluble”.
“KNKKVILFAPTFRGNGHRTAHYPFFKINFARLASYCEEHQATVLFKMHPFVRNKLNIPAIYSKYFLDISNYREVNDVLFITDILISDYSSLIYEFSVFKKPMLFYAFDLEDYIYTRDFYEPYETFVPGKIVKIFDELILALENNDFELEKVKPFLNKNFKYKDGKSSERLVKDLFNKFFQ”: the “soluble on expression in E. coli” value is on record as “not soluble”.
With “KPYTIDKANSSVWFEVKHFKFNETRGVFDSFDGKIDADPNTKALNVFEGKIDIKSINTRNKKRDDHLKTAEFFDVVKYPKGSFKMTKYEDGKIHGDLTLHGVTKPVVLEAKIQAPLQNPMNKKEFMVLQAEGKINRKDFGIGKTFSDAVVGDEVKIELKLEAYA”, the “soluble on expression in E. coli” value is given as “soluble”.
For “KRLQKKIDNGELDSFPEVKEVDVECCGQHEVCERDSLLAAVSKQIEYYDDEELDTFIGRAPEDYTPEEADKFRDVFYTMQDTDVAGWVRSLQLRGISLPDEIKDEVFLVVGERRIH”, the “soluble on expression in E. coli” value is “not soluble”.
Take “KRLQQKIEKGELDRMPEVKEADIECCGQHEVCEKDSLLAAVSKKIEYYDDEELDQFIGKEANAYTDEETNQFRDVLYTMQDIDVAGWVRSLQLRGIELPDDLKDEVFLIIGERRNG”: the “soluble on expression in E. coli” value is “soluble”.
With “KTFEPTNPFFRVVLRPSYLYRGCIMYLPSGFAEKYLSGISGFIKVQLAEKQWPVRCLYKAGRAKFSQGWYEFTLENNLGEGDVCVFELLRTRDFVLKVTAFRVNEYV”, the “soluble on expression in E. coli” value is listed as “not soluble”.
“KTNRRSETNIIRFNNSIFSAAVDYLNEMYNKQLGSICEPLINAYADVEQESPRNKQQGYVKVEFLEPDEEHDYTEQTLISLGMEVEHLLQSGVKLNDIAILVRKNKSIPRIADYFDKQLNYKIVSDEAFRLDASLAICMMLDALRYLSDPENRIVKAQLATNYQLQILHSEYDLNSLLLHKAEELFPPAFLERMAELRLMPLYELLEELFSLFELHRIEQQDAYLFAFFDAVTDYLQSHSSDPDSFIRYWNETLSGKTIPSGEVEGIRIFSIHKSKGLEFHTVLLPFCDWKLENETNNQLVWCVPQEAPFNELDIVPVNYSSAMAESVYRTDYLHERLQLWVDNLNLLYVAFTRAGKNLIIWSRKGQRNTMA”: the “soluble on expression in E. coli” value is on record as “not soluble”.
Turning to “LAWKRMEEHDWTCDCIRCREAGHSDDVAENIELDVMTYEACGGMEHFISFEDFENDVLVGFCRLRFPNDPVRRELQDAAIVRELHVYGNAVGVGQEGDDEDHQHKGYGKKLLEKAEVLARDAGFPKLAVISGIGVRQYYREKLGYKQDGPYVSKRL”, the “soluble on expression in E. coli” value is listed as “not soluble”.
For the sequence “LESKNMTWYRMLLVTPVRQGEKVRKFFLHAFHSFEYRALSSGTEEEGLVLTVNDSERTEEIFSCCEKMKAFCKNFLGETPQILCSRAYQQGDDSSLLYEQTKAYAKGRSAEQILIVPQNAEEGDGTDTLLKRVQTYIRNHYTERLTLADIAEAVHVSSSYLSRFYKLKAGENLFDTINSLRVEKAKELLLRGDKKIYEIAALTGFEDTAYFSKVFKKYAGCPPKEYEQSGGRNL”, the “soluble on expression in E. coli” value is on record as “not soluble”.
With “LGKLDVLKVSAPWLASLRDELDQTCFLAVWGNKGPTVVYVEPSMGAVTLVTQIGSVLPLLSSSTGLVFDSFLAQGETALLREQETPRLSADQLHEVERHIKQIRATGVHQIQGMLMPGINAASSPLFAMGNKLVGVITVVGPGSVLNDKAQGQAARRLLETATAISERMGGSQLRS”, the “soluble on expression in E. coli” value is reported as “soluble”.
Turning to “LGVDRAKQIQALAKGTFGINIALDAFTLELRLLVEQIEFIEEQISVIEEAIDQVMEEMRPSKDTAYRHVLETIPGIGPVLAASIIGEIGDINRFPNAKALVAYAGLDATVRSSGQFEGTRNRISKRGSPVLRHSIWLAAVSARRFNPEMKEFFEKKRSEGKHTLVATGAVARRMVHLIYSLWKDNRPFDPNYQWSPTNSR”, the “soluble on expression in E. coli” value is reported as “soluble”.
As to “LHRIVDKMHDTSTGIRPSPNMEQGSTYKKTFLGSSLVDWLISSNFAASRLEAVTLASMLMEENFLRPVGVRSMGAIRSGDLAEQFLDDSTALYTFAESYKKKVSSKE”, the “soluble on expression in E. coli” value is recorded as “soluble”.
As for “LLQHAYNPINWYSWNDEAFKKAKEEDKPIFLSVGYSTCHWCHVMEKESFEDEEVAEIMNRNFVAIKVDKEERPDVDSVYMTVCQAMTGSGGWPMTIIMTPDKKPFFAGTYFPKYSRYNRPGVIDLLENVSEKWNTSRDILIKSGDEIIEAL”, the “soluble on expression in E. coli” value is reported as “not soluble”.
“LMPLRDIVIFPTMVQPLFVGRRFSIRAIEEANKKDKLIFLVLQKDKDVEEPKEEDIYKVGVVAYILRTVPIEDARVKVLVQGLKRGVIKKLEWKEDHYVAQVDVIEERDIPPESQTIEDKALIKAVKESIDKLVSLGKQIIPDLVVLIKELEEPGKLADMVASILDIKSSQAQEILETFDPRERLKK”: the “soluble on expression in E. coli” value is listed as “soluble”.
For “LNIHVTIREATEGDLEQMVHMLADDVLGRKRERYEKPLPVSYVRAFKEIKKDKNNELIVACNGEEIVGMLQVTFTPYLTYQGSWRATIEGVRTHSAARGQGIGSQLVCWAIERAKERGCHLIQLTTDKQRPDALRFYEQLGFKASHEGLKMHF”, the “soluble on expression in E. coli” value is reported as “soluble”.
Regarding “LRANKPVFKNAGATLHDIGDGIVNLEFHTKMNTLGGEVVDAINRSIGIAEKDFQGIVIGNDGANFSAGANLALVLMYAIEQEYDEIDFMIRAFQNTMMRARYSSIPVVVAPHNLTLGGGCEMTLHADHVQAFAETYIGLVEFGVGLIPAGGGTKEFTLRVSDSFEDGDIQVNNLKNMYMHIATAKVATSAEEARSMGILRKSDGITLNRSRLIADAKAAAISLAEAG”, the “soluble on expression in E. coli” value is listed as “not soluble”.
Turning to “LRSVFVSGFPRGVDSAQLSEYFLAFGPVASVVMDKDKGVFAIVEMGDVGAREAVLSQSQHSLGGHRLRVRPREQKEFQSPASKSPKG”, the “soluble on expression in E. coli” value is reported as “soluble”.
Regarding “LRTGIDNVLRAKTGGLIVLGYNENMKGIVDGGFYLDCPFSPASLYELAKMDGAIILNEDGTKILYANTQLNPDNAISSNETGIRHRTAERVAKQTGNLVISISQRRNVITLYHGHL”, the “soluble on expression in E. coli” value was “soluble”.
On to “LSGYAQAGFSSLWLPTASSEKENYNTFDVKRITLRANVAITDKWSVTFIPDFAKRYTNLELYTSFRTCSGFGIRLGQFKTAFSIENQLSPTTIETISCGSMATNFLAAGNGSDPLMGAQSGRDVGLEIYGDLFNDILGYRLGVLNGQGINTLDGSKHKTLEGSLTLRPIECLSFTGSFMSGKTAALNDAPIKINSKQIMAGDLYDRSRWSVGGMFRSKYLDLRSEYLEGKDDDMISKGFYVTGVGRLFKNLDIIGSYDFMDLYERQQVHNITAGLQYWFFPKCRLQAQYVLSNPKGEYNNTHALLTQVQVAF”, for which the “soluble on expression in E. coli” value is listed as “not soluble”.
As for “LTPLAQMAEGMERQDVSIDKWTLHAKQNLSLTEKEFYQKVQRLKQEYRQYDWVIAREDKMIKAIGTYTDKKNRTSFRLQLVTTLKKHNPTSYLLYEQMSLETPDSWNDTYEQFERETLGIFQEKVVIFTCLNGHLDDNMNIVLQKKANQLLNEFQARSVEHVVEPNFVSISAFTDEWEEYIMTSKHKMNLQIALRSAGMGGKHTVTVGTPIVTTEY”, the “soluble on expression in E. coli” value is given as “soluble”.
In the case of “LTRFSAGYGSDSMLEASADIGRRFGPDDSVGIRINAAQRGGETAIDGERTRTTVFALGLDWRGERARLSADIGYQDNRLKRARPNVTLAGDAAKVPGAPDAGSNYAQPWSYSNERDVFGTLRGEYDFNDRITGWAAYGMRQSKEENSLANLNGVNGAGQGKFYRFDNAREDTVNTGEIGLRAKARTGPVGHELVASASYFDLEKKNAYVMDFFNQFDTSIYDPVSYAKPAISSTAFRGNDMDDPAKQGVIRLASYALGDTMSFFDDKVLLTAGIRHQRLYQRDYSYDTGIGGTPYEQSHNSPAAGLVVRVTPQVSLYANYIEALSAGDTAPQTANGLPVVNHGESLAPYVSKQKEVGVKFEHDGLGGGLALFSTDKPRGFVGDDQVFRASGKDRHRGVELTTYGELTRSVRVLGGLTWLDAKQLSTGNAATDGKRVIGVPRFQANLGVEWDIPGVQGLTVDGRVVYTGSSYADAANTLEVPGWTRLDAGLRYMTDIGGHLVTWRARVENIANRDYWSSVGGYPGNGYLVLGGPRTFTLSASMEF”, the “soluble on expression in E. coli” value is recorded as “not soluble”.
